Patent US20030170875A1

Target: wild type human norepinephrine transporter (human) (UniProt P23975)
Assay: cell-based or functional assay

[3H]NE uptake on cotransfection (% of wt alone): 59
Substance: human norepinephrine transporter A457P mutant (from UniProt P23975 1-617)
